US20240092920A1 (KEYMED BIOSCIENCES, published 2024)
Substitutions are numbered along the chain they refer to.

B1: 1021/1013 (antibody, IgG1, V domains shown)
VH: EVQLVESGGGLVKPGGSLRLSCAASGFTFSRYAMSWVRQAPGKGLEWVSTISSGGSYTNYADSVKGRFTISRDNVKNTLYLQMNSLRAEDTAVYYCARATARATEFAYWGQGTLVTVSS
VL: DIQMTQSPSSLSASVGDRVTITCQASQDISNYLNWYQQKPGKAPKLLIYYTSRLHSGVPSRFSGSGSGTDYTLTISSLQPEDFATYFCQQGNTLPLTFGGGTKVEIK
notes: Humanized candidate antibody; also called 1021/1013-IgG; VH1021 with VL1013
B2: 1026/1011 (antibody, V domains shown)
VH: QVQLVQSGAEVKKPGASVKMSCKASVYTFTGYNMHWVRQAPGQGLEWIGGLHPGNGDTSYNQKFKDRATLTADRSSNTAYMELSSLRSEDTAVYYCALTTAGRAWFAYWGQGTLVTVSS
VL: B1 VL with L73F, F83I, L96W
notes: Humanized candidate antibody; same remark on Fab/IgG wording as for 1021/1013; also called 1026/1011-IgG; VH1026 with VL1011
B3: 1026/1012 (antibody, V domains shown)
VH: B2 VH
VL: B1 VL with Q24R, L96W
notes: Humanized candidate antibody; same remark on Fab/IgG wording as for 1021/1013; also called 1026/1012-IgG; VH1026 with VL1012
B4: 1022/1013 (antibody, V domains shown)
VH: B1 VH with V5L, K13Q
VL: B1 VL
notes: Humanized candidate antibody; same remark on Fab/IgG wording as for 1021/1013; also called 1022/1013-IgG; VH1022 with VL1013

The binders below were run against T1, hIL-4Rα, full length, on stably transfected HEK293 cells (human, UniProt P24394 26-825) (assay: flow cytometry on 293-hIL-4Rα stably transfected cells, anti-human IgG Fab'2-AF647).
T1 construct: whole, on cells; also called HEK293-hIL-4Rα
T1 sequence (looked up): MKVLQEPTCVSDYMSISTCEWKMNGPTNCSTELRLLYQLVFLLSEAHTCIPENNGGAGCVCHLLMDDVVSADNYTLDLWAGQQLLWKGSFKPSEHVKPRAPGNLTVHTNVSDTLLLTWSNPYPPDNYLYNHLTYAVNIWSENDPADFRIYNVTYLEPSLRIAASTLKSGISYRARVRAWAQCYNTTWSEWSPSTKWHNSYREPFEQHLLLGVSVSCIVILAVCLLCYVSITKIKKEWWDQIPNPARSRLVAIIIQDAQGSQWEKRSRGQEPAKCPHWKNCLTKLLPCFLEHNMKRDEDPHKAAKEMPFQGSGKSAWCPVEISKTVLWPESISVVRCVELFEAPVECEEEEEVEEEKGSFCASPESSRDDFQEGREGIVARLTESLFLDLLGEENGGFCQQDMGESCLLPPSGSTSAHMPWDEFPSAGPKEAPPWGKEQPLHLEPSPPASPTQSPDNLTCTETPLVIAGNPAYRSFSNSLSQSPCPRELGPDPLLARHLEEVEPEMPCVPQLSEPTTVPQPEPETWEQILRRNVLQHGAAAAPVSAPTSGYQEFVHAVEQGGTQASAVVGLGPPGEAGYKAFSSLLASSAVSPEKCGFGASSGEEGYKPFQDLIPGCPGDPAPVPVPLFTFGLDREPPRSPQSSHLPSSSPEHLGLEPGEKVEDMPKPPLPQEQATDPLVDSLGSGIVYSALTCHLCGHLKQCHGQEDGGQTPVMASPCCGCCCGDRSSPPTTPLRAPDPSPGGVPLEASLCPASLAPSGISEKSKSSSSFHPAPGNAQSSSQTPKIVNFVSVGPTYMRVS
Protocol: Every 1*10⁶ cells corresponds to 100 μl of 3% BSA/PBS solution, and the solution is blocked at 4° C. for 20 minutes. The prepared cells are added to a 96-well U-type plate at a volume of 100 μl/well, and centrifuged at 1100 rpm for 3 minutes, and the supernatant is discarded; and the primary antibody solution is added and incubated for 1 hour on ice. […] After incubation with the primary antibody solution, additional 0.5% BSA/PBS is added to a volume of […], centrifuged at 1100 rpm for 3 minutes, and the supernatant is discarded. 150 μl of 0.5% BSA/PBS is further added, centrifuged at 1100 rpm for 3 minutes, and the supernatant is discarded; before adding a secondary antibody anti-human IgG, Fab′2-AF647, same is diluted at 1:300 with 1% BSA/PBS. 40 μl of the secondary antibody solution is added to each well and incubated on ice for 45 minutes. After incubation with the secondary antibody solution, additional 0.5% BSA/PBS is added to a volume of 150 μl, centrifuged at 1100 rpm for 3 minutes, and the supernatant is discarded; 150 μl of 0.5% BSA/PBS is further added, centrifuged at 1100 rpm for 3 minutes, and the supernatant is discarded; 20-100 μl of PBS is added to resuspend the cells to 1*10⁶ cells per ml, and the obtained suspension is loaded onto a flow cytometer (I-Que screener). After opening the instrument and operating system according to the correct process, and setting the correct parameters, the cells are loaded to the test plate, and the fluorescent signal is detected, analysis is performed using Graph Pad Prism 5 software.
For B1, the “EC50 (read off the curve)” value was roughly 0.03 nM. For B2, the “EC50 (read off the curve)” value was roughly 0.07 nM. With B3 the “EC50 (read off the curve)” value was roughly 0.06 nM.

Each binder was assayed against T2, recombinant protein of human IL-4Rα extracellular region (human, UniProt P24394 26-232) (assay: ELISA on coated human hIL-4Rα (1 ug/ml), HRP-linked secondary antibody, OD450).
T2 construct: range 26-232; Made in HEK293-6E cells, purified on nickel chelate; Used biotin-labeled on SA probes in the Fortebio assays and unlabeled as ELISA coat; also called hIL-4Rα; IL-4Rα recombinant protein
T2 sequence: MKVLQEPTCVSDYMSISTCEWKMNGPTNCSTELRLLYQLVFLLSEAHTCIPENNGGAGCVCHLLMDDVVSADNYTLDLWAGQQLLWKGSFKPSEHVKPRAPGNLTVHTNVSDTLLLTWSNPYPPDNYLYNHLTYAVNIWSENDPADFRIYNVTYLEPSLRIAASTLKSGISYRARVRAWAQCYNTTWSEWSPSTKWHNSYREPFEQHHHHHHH
Protocol: (§1) 1 ug/ml human hIL-4Rα, 10 ug/ml cynomolgus cynoIL-4Rα, 1 ug/ml mouse mIL-4Rα (Sino Biological, Cat: 80198-R08H) and 1 ug/ml rat-derived ratIL-4Rα (Sino Biological, Cat: 51180-MO8H) are diluted in 0.05 M carbonate coating buffer (pH 9.5) at 4° C. overnight. The solution in the wells is discarded the next day and the wells are washed 3 times with PBS washing buffer. Then PBS solution containing 2% BSA is added for blocking for 2 hours. After washing 3 times with PBS washing buffer, 100 ul of humanized candidate antibodies at different diluted concentrations is added, incubated for 1 h at room temperature, and then washed 3 times with PBS washing buffer; the HRP cross-linked antibody (Jackson Immuno Research) is diluted at 1:10000 with PBS washing buffer and incubated for 1 hour at room temperature. After washing 3 times with PBS washing buffer, 100 ul of TMB substrate solution is added to develop color, and after reaction at room temperature for 10 minutes; the reaction is stopped by the addition of 50 ul of 0.5 M concentrated sulfuric acid solution and the absorbance at 450 nm is read.
B1 gave an EC50 of 0.064 nM. With B2 the EC50 was 0.06 nM. Work on B4 yielded an EC50 of 0.067 nM. With B3 the EC50 was 0.017 nM.

These binders were tested against T1, hIL-4Rα, full length, on stably … (assay: flow cytometry blocking assay on 293-hIL-4Rα stably transfected cells; blocked ligand: biotin-labeled IL-4 at 0.15 ug/ml, SA-PE).
Protocol: Every 1*10⁶ cells corresponds to 100 μl of 3% BSA/PBS solution, and the solution is blocked at 4° C. for 20 minutes. The prepared cells are added to a 96-well U-type plate at a volume of 100 μl/well, and centrifuged at 1100 rpm for 3 minutes, and the supernatant is discarded; and the primary antibody solution is added and incubated for 1 hour on ice. Purified candidate antibodies are made into 5 concentration series with a starting concentration of 100 nM, and diluted according to a series of 1:5. After incubation with the primary antibody solution, additional 0.5% BSA/PBS is added to a volume of 150 μl, centrifuged at 1100 rpm for 3 minutes, and the supernatant is discarded. 150 μl of 0.5% BSA/PBS is further added, centrifuged at 1100 rpm for 3 minutes, and the supernatant is discarded; biotin-labeled IL-4 at a final concentration of 0.15 ug/ml is added and incubated on ice for 45 minutes. The secondary antibody SA-PE is diluted at 1:300 with 1% BSA/PBS; 40 μl of the secondary antibody solution is added to each well and incubated on ice for 45 minutes. After incubation with the secondary antibody solution, additional 0.5% BSA/PBS is added to a volume of 150 μl, centrifuged at 1100 rpm for 3 minutes, and the supernatant is discarded; 150 μl of 0.5% BSA/PBS is further added, centrifuged at 1100 rpm for 3 minutes, and the supernatant is discarded. 20-100 μl of PBS is added to resuspend the cells to 1*10⁶ cells per ml, and the obtained suspension is loaded onto a flow cytometer (I-Que screener). After opening the instrument and operating system according to the correct process, and setting the correct parameters, the cells are loaded to the test plate, and the fluorescent signal is detected, analysis is performed using Graph Pad Prism 5 software.
In the case of B2, the “IC50 (read off the curve)” value is reported as roughly 0.2 nM. In the case of B4, the “IC50 (read off the curve)” value is reported as roughly 0.09 nM. B3 was tested, and the “IC50 (read off the curve)” value was roughly 0.2 nM.

Molecular target: T3, recombinant protein of cynomolgus IL-4Rα extracellular region (cynomolgus monkey)
T3 construct: also called cynoIL-4Rα; cynomolgus monkey IL-4Rα
T3 chain: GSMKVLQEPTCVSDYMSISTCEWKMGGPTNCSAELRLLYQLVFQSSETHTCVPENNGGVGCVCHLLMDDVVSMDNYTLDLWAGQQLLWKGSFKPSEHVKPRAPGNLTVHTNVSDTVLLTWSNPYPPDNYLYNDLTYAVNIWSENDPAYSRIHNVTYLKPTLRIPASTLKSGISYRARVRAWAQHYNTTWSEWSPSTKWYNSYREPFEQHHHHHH
Assay: ELISA on coated cynomolgus cynoIL-4Rα (10 ug/ml), HRP-linked secondary antibody, OD450
Protocol: as §1
For B1, the EC50 was 1.4 nM. B2 gave an EC50 of 89.2 nM. B4 gave an EC50 of 1.16 nM. B3 showed an EC50 of 13.2 nM.
